Here are results for 1 molecule from PMC6754406, “Ran pathway-independent regulation of mitotic Golgi disassembly by Importin-α” (Nature Communications, 2019).

One data set has as its target T1, Importin-β (Homo sapiens, UniProt Q14974).
T1 construct: GST (N, cleaved yes); made in house; host or cells: Escherichia coli Rosetta
The data set is described as follows: GST pulldown of Importin-β with RanQ69L (dissociation). The note with it: GM130:RanQ69L:Importin 1:4:1; three independent experiments. Type of data set: binding. How it is done: Fig. 4 Ran and a phosphate moiety repress GM130 and Importin-β interaction. a SEC (Superdex 200) elution profiles for the Importin-β•GST-GM130-WT complex (black line), Importin-β (gray line), and GST-GM130-WT (light gray line). The void volume (Vo) is indicated. b–d The peak fractions of the Importin-β•GST-GM130-WT complex (b), Importin-β (c), and GST-GM130-WT (d) were analyzed by SDS–PAGE and stained with Coomassie blue. e, f ITC titration curves (upper) and binding isotherms (lower) of Importin-β with GM130-NLS WT (e) and GM130-NLS phospho-S25 (f). Kd values are indicated. g Competition binding assay. GST-GM130-S25D and Importin-β were incubated with indicated concentrations of GFP-IBB. Samples pulled down by GST beads were analyzed by SDS–PAGE and stained with Coomassie blue. […] GST-bound samples were analyzed by SDS–PAGE and stained with Coomassie blue. i, k Band intensities of Importin-α or Importin-β from the SDS–PAGE gels in h, j were used to determine averages of bound protein. […]
A 1:1 molar ratio of GST-GM130-WT or mutant GM130 and Importin-α FL was incubated with glutathione-coupled sepharose beads (GE Healthcare). After pre-washing with 150 mM NaCl, proteins were eluted by a buffer containing 50 mM reduced glutathione and analyzed by SDS–PAGE. […]

A further data set has as its system Importin-α (a.a. 70–498). The data set can be described thus: CD spectra thermal melting assay of complexes with Importin-α. Type of data set: physicochemical. The note with it: CD at 222 nm, 20 to 75 °C, 0.2 mg/ml, 20 mM HEPES pH 7.4, 50 mM NaCl, 3 mM DTT; average of three scans; complex with Importin-α (a.a. 70–498). How it is done:
The CD spectra of the GM130-WT(1–48)•Importin-α (a.a. 70–498), GM130-S25D(1–48)•Importin-α (a.a. 70–498), and GM130-NLS phospho-S25 (a.a. 13–38)•Importin-α (a.a. 70–498) complexes were recorded using an AVIV CD400 spectrometer. Thermal melting temperatures were determined by measuring the ellipticity at a wavelength of 222 nm as a function of temperature from 20 to 75 °C. The protein concentration used in the CD measurements was 0.2 mg/ml in a buffer of 20 mM HEPES (pH 7.4), 50 mM NaCl, and 3 mM DTT. Measurements were taken three times and averaged.

The next data set deals with p115-CTD. The data set can be described thus: Competition binding assay, p115-CTD remaining on GST-GM130 in presence of Importin-α FL. Particulars: 40 μM Importin-α FL; three independent experiments. How it is done: Fig. 3 GM130 interacts with full-length Importin-α. a, b ITC titration curves (upper) and binding isotherms (lower) of Importin-α FL with GM130-NLS WT (a) and GM130-NLS phospho-S25 (b). Kd values are indicated. c Pulldown assays of Importin-α FL with GM130-WT or GM130-S25D. GST-tagged GM-130-WT or GM130-S25D was incubated with Importin-α FL. GST-bound samples were analyzed by SDS–PAGE and stained with Coomassie blue. d Competition binding assay. p115-CTD was incubated with either GST-GM130-WT or GST-GM130-S25D in the presence of indicated concentrations of Importin-α FL. Samples pulled down by GST beads were analyzed by SDS–PAGE and stained with Coomassie blue. e, f Band intensities of Importin-α FL and p115-CTD from the SDS–PAGE gels in d were quantified and normalized by GST-GM130 intensity. Quantitative plots show normalized Importin-α FL intensities (e) and percent p115-CTD remaining on GM130 (f).
To examine whether Importin-α FL also competes with p115-CTD for GM130 binding, we carried out competition binding assays in the presence of Importin-α FL, p115-CTD, and GM130. […] Moreover, we observed a ~2-fold increase in Importin-α FL pulldown by the phosphomimetic mutant (GM130-S25D) compared to wild-type GM130 (40 μM Importin-α FL; Fig. 3d, e). […]

T1 sequence (Q14974 whole entry): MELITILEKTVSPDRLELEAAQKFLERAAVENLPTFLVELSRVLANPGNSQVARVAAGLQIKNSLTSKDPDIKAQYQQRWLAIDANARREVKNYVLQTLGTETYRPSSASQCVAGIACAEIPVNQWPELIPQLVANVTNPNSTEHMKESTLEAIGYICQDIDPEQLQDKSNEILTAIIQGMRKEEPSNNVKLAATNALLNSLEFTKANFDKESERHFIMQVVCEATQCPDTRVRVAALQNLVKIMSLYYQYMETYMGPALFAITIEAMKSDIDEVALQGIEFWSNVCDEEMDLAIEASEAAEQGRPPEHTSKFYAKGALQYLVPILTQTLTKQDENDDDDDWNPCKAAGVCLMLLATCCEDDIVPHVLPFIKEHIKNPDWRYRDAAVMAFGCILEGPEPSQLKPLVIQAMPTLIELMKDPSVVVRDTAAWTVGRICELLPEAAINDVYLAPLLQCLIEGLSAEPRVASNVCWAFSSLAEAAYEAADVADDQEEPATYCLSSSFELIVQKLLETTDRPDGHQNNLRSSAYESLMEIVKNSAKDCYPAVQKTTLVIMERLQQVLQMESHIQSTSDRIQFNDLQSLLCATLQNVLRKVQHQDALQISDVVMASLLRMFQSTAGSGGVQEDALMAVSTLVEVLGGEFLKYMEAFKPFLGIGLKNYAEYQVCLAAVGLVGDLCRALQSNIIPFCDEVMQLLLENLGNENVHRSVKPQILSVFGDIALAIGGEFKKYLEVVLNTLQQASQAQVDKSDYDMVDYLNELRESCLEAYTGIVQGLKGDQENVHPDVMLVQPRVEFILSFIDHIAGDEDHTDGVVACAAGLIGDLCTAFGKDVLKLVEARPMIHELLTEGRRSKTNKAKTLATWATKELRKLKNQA

B1: GM130-WT: wild type GM130 N-terminal region (a.a. 1-85) (protein)
chain: MWPQPRLPPRPAMSEETRQSKLAAAKKKLREYQQRNSPGVPTGAKKKKKIKNGSNPETTTSGGCHSPEDTPKDNAATLQPSDDTVLPGGVPSPGASLTSMAASQNHDADNVPNLMDETKTFSSTESLRQLSQQLNGLVCESATCVNGEGPASSANLKDLESRYQQLAVALDSSYVTNKQLNITIEKLKQQNQEITDQLEEEKKECHQKQGALREQLQVHIQTIGILVSEKAELQTALAHTQHAARQKEGESEDLASRLQYSRRRVGELERALSAVSTQQKKADRYNKELTKERDALRLELYKNTQSNEDLKQEKSELEEKLRVLVTEKAGMQLNLEELQKKLEMTELLLQQFSSRCEAPDANQQLQQAMEERAQLEAHLGQVMESVRQLQMERDKYAENLKGESAMWRQRMQQMSEQVHTLREEKECSMSRVQELETSLAELRNQMAEPPPPEPPAGPSEVEQQLQAEAEHLRKELEGLAGQLQAQVQDNEGLSRLNREQEERLLELERAAELWGEQAEARRQILETMQNDRTTISRALSQNRELKEQLAELQSGFVKLTNENMEITSALQSEQHVKRELGKKLGELQEKLSELKETVELKSQEAQSLQQQRDQYLGHLQQYVAAYQQLTSEKEVLHNQLLLQTQLVDQLQQQEAQGKAVAEMARQELQETQERLEAATQQNQQLRAQLSLMAHPGEGDGLDREEEEDEEEEEEEAVAVPQPMPSIPEDLESREAMVAFFNSAVASAEEEQARLRGQLKEQRVRCRRLAHLLASAQKEPEAAAPAPGTGGDSVCGETHRALQGAMEKLQSRFMELMQEKADLKERVEELEHRCIQLSGETDTIGEYIALYQSQRAVLKERHREKEEYISRLAQDKEEMKVKLLELQELVLRLVGDRNEWHGRFLAAAQNPADEPTSGAPAPQELGAANQQGDLCEVSLAGSVEPAQGEAREGSPRDNPTAQQIMQLLREMQNPRERPGLGSNPCIPFFYRADENDEVKITVI
For the molecule B1, the “release of Importin-β from Importin-β•GM130 complex by RanQ69L” value with Importin-β was ~ 47%. Besides, in the data set on Importin-α (a.a. 70–498), the Tm was ~ 44 °C. Moreover, the “p115-CTD remaining on GM130” value in the data set with p115-CTD is recorded as ~ 38%.
